Reference: US12186374B2 (Sanofi-Aventis Deutschland GmbH, priority 2014, dated 2025)

Tests used:
patients with T2DM [1] = test: Body weight change from baseline to Week 30 (Example 3); assay type: in vivo, human
Excerpt: Body weight should be obtained with the patient wearing undergarments or very light clothing and no shoes, and with an empty bladder. The same scale should be used throughout the study, and calibrated on a regular basis as recommended by the manufacturer.
(§1) Similar MMRM method or analysis of covariance (ANCOVA) was applied on continuous secondary efficacy endpoints and the Cochran-Mantei-Haenszel method stratified by randomization strata was applied for categorical efficacy endpoints.

patients with T2DM [2] = test: HbA1c change from baseline to Week 30 (Example 3, with or without metformin); assay type: in vivo, human
Method: For the eligibility and efficacy assessments of the study, HbA1c is measured by a certified level I “National Glycohemoglobin Standardization Program” (NGSP) central laboratory.
Methodology: This was an open-label, 1:1 randomized, active-controlled, 2-arm, 30-week treatment duration, parallel-group multinational and multicenter study. The randomization was stratified by value of HbA1cat Visit 5 (Week −1) (<8%, ≥8%) and metformin use at screening (Y, N).
Diagnosis and criteria for inclusion: Inclusion criteria: Patients with type 2 diabetes mellitus diagnosed for at least 1 year and inadequately controlled on their current antidiabetic treatment. Patients had to be treated with basal insulin for at least 6 months at a stable daily dose of 15 to 40 U, alone or combined with 1 or 2 oral anti-diabetic drugs ((metformin, an SU, a glinide, a DPP-4 inhibitor, or a SGLT-2 inhibitor) at a stable dose for at least 3 months. Key exclusion criteria for randomization (at the end of the run-in phase): HbA1c<7% or >10% at Visit 5 (week −1); mean fasting SMPG >140 mg/dL (7.8 mmol/L) for the 7 days before the randomization Visit (Visit 6); average insulin glargine daily dose <20 U or >50 U calculated for the last 3 days before Visit 6.
Efficacy analysis was based on modified intent-to-treat (mITT) population using efficacy assessment collected during the study, including those obtained after IMP discontinuation or introduction of rescue therapy. The mITT population consisted of all randomized patients who had both a baseline assessment and at least one post-baseline assessment of any primary or secondary efficacy variables.
The primary efficacy endpoint was analyzed using a mixed-effect model with repeated measures (MMRM). The MMRM model included the treatment groups, randomization strata, visit, treatment-by-visit interaction, and country as fixed-effect factors, and the baseline HbA1c-by-visit interaction as covariate.

patients with T2DM [3] = assay type: in vivo, human; conditions: Example 3
Excerpt: as §1

[4] = tested on: patients with Type 2 diabetes mellitus (T2DM); test: Symptomatic hypoglycemia (Example 2)
[5] = tested on: patients with Type 2 diabetes mellitus (T2DM); test: Patients receiving rescue therapy (Example 2); assay type: in vivo, human
Excerpt: Routing measurements and central lab alerts were set up to ensure that glycemic parameters remained under thresholds values predefined for rescue therapy. If values were above these thresholds, and no explanations were found, or appropriate actions failed, or a dose >60 U was necessary to decrease glycemic parameters below the threshold values, rescue therapy was to be introduced along with IMP and metformin (if taken). Newly initiated anti-diabetic medications, or an increase from baseline in background metformin dose were considered as rescue therapy.

[6] = on-treatment period, Safety population

## Gly(A21)-Arg(B31)-Arg(B32)-human insulin [Insulin Glargine]
Patients with T2DM [1]; Example 3
  Body weight, LS mean change from baseline to Week 30: +0.70 kg
Patients with T2DM [1]; MMRM, mITT population
  Body weight change from baseline to Week 30, LS Mean (SB): 0.70 (0.178) kg
Patients with T2DM [1]; mITT population
  Body weight at Week 30, Mean (SD): 87.96 (15.08) kg
  Body weight at Week 30, Median: 85.90 kg
Patients with T2DM [2]; Example 3
  Mean HbA1c level at Week 30: 7.5%
Patients with T2DM [2]; MMRM, mITT population
  HbA1c change from baseline to Week 30, LS Mean (SE): −0.62 (0.055) %
Patients with T2DM [2]; mITT population
  HbA1c at Week 30, Mean (SD): 7.48 (0.91) %
  HbA1c at Week 30, Median: 7.40%
Patients with T2DM [3]
  Patients reaching HbA1c<7.0% with no body weight gain and no documented symptomatic hypoglycemia: 9.0%
Patients with T2DM [3]; 30-week treatment period
  Patients reaching HbA1c<7.0% at Week 30 with no documented symptomatic hypoglycemia: 18.6%
[4]; Example 2
  Documented (≤70 mg/dL) symptomatic hypoglycemia event rate per patient-year: 1.22 per patient-year
  Events of severe symptomatic hypoglycemia: 1 event
  Incidence of documented (≤70 mg/dL) symptomatic hypoglycemia: 23.6%
  Number of symptomatic hypoglycemia events: 338 events
  Patients reporting symptomatic hypoglycemia (protocol definition): 25.5%
  Symptomatic hypoglycemia events per patient-year: 1.29 events per patient-year
[4]; [6]
  Documented symptomatic hypoglycemia (plasma glucose < 60 mg/dL [[…]]): Number of events: 75
  Documented symptomatic hypoglycemia (plasma glucose < 60 mg/dL [[…]]): Number of events per patient year: 0.29 per patient year
  Documented symptomatic hypoglycemia (plasma glucose < 60 mg/dL [[…]]): Number of patients with events: 50 (10.7%) n (%)
  Documented symptomatic hypoglycemia (plasma glucose < 60 mg/dL [[…]]): Number of patients with events per patient year: 0.19 per patient year
  Documented symptomatic hypoglycemia (plasma glucose ≤ 70 mg/dL [[…]]): Number of events: 321
  Documented symptomatic hypoglycemia (plasma glucose ≤ 70 mg/dL [[…]]): Number of events per patient year: 1.22 per patient year
  Documented symptomatic hypoglycemia (plasma glucose ≤ 70 mg/dL [[…]]): Number of patients with events: 110 (23.6%) n (%)
  Documented symptomatic hypoglycemia (plasma glucose ≤ 70 mg/dL [[…]]): Number of patients with events per patient year: 0.42 per patient year
  Probable symptomatic hypoglycemia: Number of events: 16
  Probable symptomatic hypoglycemia: Number of events per patient year: 0.06 per patient year
  Probable symptomatic hypoglycemia: Number of patients with events: 12 (2.6%) n (%)
  Probable symptomatic hypoglycemia: Number of patients with events per patient year: 0.05 per patient year
  Severe symptomatic hypoglycemia: Number of events: 1
  Severe symptomatic hypoglycemia: Number of events per patient year: <0.01 per patient year
  Severe symptomatic hypoglycemia: Number of patients with events: 1 (0.2%) n (%)
  Severe symptomatic hypoglycemia: Number of patients with events per patient year: <0.01 per patient year
  Symptomatic hypoglycemia: Number of events: 338
  Symptomatic hypoglycemia: Number of events per patient year: 1.29 per patient year
  Symptomatic hypoglycemia: Number of patients with events: 119 (25.5%) n (%)
  Symptomatic hypoglycemia: Number of patients with events per patient year: 0.45 per patient year
[5]
  Patients who received rescue therapy, %: 3.4%
  Patients who received rescue therapy, number: 16 patients
